The results in this text go back to US20250197485A1, “Anti-ED-A Antibodies for the Treatment of Pulmonary Hypertension” (Universitätsklinikum Jena, priority 2022, published 2025).

Test [1] has as its system MCT-induced PH. The test can be described thus: Echocardiographic assessment in mouse model of MCT-induced PH. It is filed as in vivo, C57BL/6 mice. From the text: PH was induced in C57BL/6 mice (bodyweight: 25-30 g). The animals were obtained from ZET facility (Zentale Experimentelle Tierhaltung) of the University Hospital Jena (UKJ, Jena, Germany). Prior to PH induction, mice were allowed to acclimatize for at least 7 days with ad libitum access to food and water as well as controlled light/dark cycles. 41 animals were investigated divided into the following five experimental groups: • 1) sham induced controls (n=7) • 2) MCT induced PH (n=12) • 3) MCT induced PH+MAC (n=6) • 4) MCT induced PH+F8 IgG (n=8) • 5) MCT induced PH+KSF IgG (n=8) For PH induction, the Monocrotaline (MCT, Carl Roth, Germany) method was used. The sham induced controls were injected with 30 μl NaCl not containing MCT at day 1 (single dose; intraperitoneally, i.p.). […] The other 4 experimental groups were injected with MCT to induce PH (single dose; intraperitoneally, i.p.; 60 mg/kg body weight; volume 30 μl). Animals in the MCT induced PH+MAC group received the drug (Macitentan, Actelion Pharmaceuticals Ltd.) from day 14 to day 28 (once daily; per os; 15 mg/kg body weight). Animals in the MCT induced PH+F8 IgG group received F8 IgG 3 times on day 14, 16 and 18 (intravenously, i.v.; 195 μg/injection; volume 200 μl). Similarly, animals in the MCT induced PH+KSF IgG group received KSF IgG 3 times on day 14, 16 and 18 (intravenously, i.v.; 195 μg/injection; volume 120 μl). Echocardiographic assessment was performed on day 28 using the Vevo 770 Rodent-Ultrasound-System, Visual Sonic, Canada, 17 MHz probe RMV176. Before echocardiography, mice were anesthetized with isoflurane for a duration time of less than 10 minutes (isoflurane-CP, 2.5V %, FiO2 1.0, oxygen per inhalation-flow dosage). Body temperature and respiratory rate were continuously monitored. All surrogate parameters of right ventricular (RV) morphology and function were assessed, among others, RV basal and medial diameters (in mm), RV length (in mm), tricuspid annular plane systolic excursion (TAPSE, in mm), right atrial area (RA area, in mm^2) or main pulmonary artery diameter (MPA, in mm). Statistical analyses were performed using IBM SPSS statistical software, version 28.0 (IBM SPSS Statistics for Windows. Armonk, NY, USA). Data are expressed as mean±standard deviation. Kruskal-Wallis and Mann-Whitney-U test were used to test for significant differences between the different groups. A p-value<0.05 as statistically significant.

The subject of test [2] is MCT-induced PH. The test can be described thus: Histological evaluation of lung tissue damage (sum-score) in mouse model of MCT-induced PH. It is filed as in vivo, C57BL/6 mice. From the text:
PH was induced in C57BL/6 mice (bodyweight: 25-30 g). The animals were obtained from ZET facility (Zentale Experimentelle Tierhaltung) of the University Hospital Jena (UKJ, Jena, Germany). Prior to PH induction, mice were allowed to acclimatize for at least 7 days with ad libitum access to food and water as well as controlled light/dark cycles. 41 animals were investigated divided into the following five experimental groups: • 1) sham induced controls (n=7) • 2) MCT induced PH (n=12) • 3) MCT induced PH+MAC (n=6) • 4) MCT induced PH+F8 IgG (n=8) • 5) MCT induced PH+KSF IgG (n=8) For PH induction, the Monocrotaline (MCT, Carl Roth, Germany) method was used. The sham induced controls were injected with 30 μl NaCl not containing MCT at day 1 (single dose; intraperitoneally, i.p.). […] The other 4 experimental groups were injected with MCT to induce PH (single dose; intraperitoneally, i.p.; 60 mg/kg body weight; volume 30 μl). Animals in the MCT induced PH+MAC group received the drug (Macitentan, Actelion Pharmaceuticals Ltd.) from day 14 to day 28 (once daily; per os; 15 mg/kg body weight). Animals in the MCT induced PH+F8 IgG group received F8 IgG 3 times on day 14, 16 and 18 (intravenously, i.v.; 195 μg/injection; volume 200 μl). Similarly, animals in the MCT induced PH+KSF IgG group received KSF IgG 3 times on day 14, 16 and 18 (intravenously, i.v.; 195 μg/injection; volume 120 μl). Microscopic evaluation to assess histopathological lung tissue damage was performed using H&E as well as Sirius Red stained lung tissue sections according to a defined sum-score (between 0 and 12; maximum score value=highest level of tissue damage) integrating certain histological alterations frequently occurring in PH: percentage of atelectasis area, percentage of emphysema area, degree of media hypertrophy of peribronchial arteries, presence of perivascular cellular edema of peribronchial arteries, and degree of media hypertrophy of small arteries. Statistical analyses were performed using IBM SPSS statistical software, version 28.0 (IBM SPSS Statistics for Windows. Armonk, NY, USA). Data are expressed as mean±standard deviation. Kruskal-Wallis and Mann-Whitney-U test were used to test for significant differences between the different groups. A p-value<0.05 as statistically significant.

Setting [3] is: in contrast to treatment with KSF IgG.

B1: F8 IgG: Chimaeric anti-ED-A antibody: human F8 VH/VL fused to murine IgG2a constant regions; heavy chain SEQ ID NO: 11, light chain SEQ ID NO: 12 (antibody)
heavy: EVQLLESGGGLVQPGGSLRLSCAASGFTFSLFTMSWVRQAPGKGLEWVSAISGSGGSTYYADSVKGRFTISRDNSKNTLYLQMNSLRAEDTAVYYCAKSTHLYLFDYWGQGTLVTVSSAKTTAPSVYPLAPVCGDTTGSSVTLGCLVKGYFPEPVTLTWNSGSLSSGVHTFPAVLQSDLYTLSSSVTVTSSTWPSQSITCNVAHPASSTKVDKKIEPRGPTIKPCPPCKCPAPNLLGGPSVFIFPPKIKDVLMISLSPIVTCVVVDVSEDDPDVQISWFVNNVEVHTAQTQTHREDYNSTLRVVSALPIQHQDWMSGKEFKCKVNNKDLPAPIERTISKPKGSVRAPQVYVLPPPEEEMTKKQVTLTCMVTDFMPEDIYVEWTNNGKTELNYKNTEPVLDSDGSYFMYSKLRVEKKNWVERNSYSCSVVHEGLHNHHTTKSFSRTPGK
light: EIVLTQSPGTLSLSPGERATLSCRASQSVSMPFLAWYQQKPGQAPRLLIYGASSRATGIPDRFSGSGSGTDFTLTISRLEPEDFAVYYCQQMRGRPPTFGQGTKVEIKRTDAAPTVSIFPPSSEQLTSGGASVVCFLNNFYPKDINVKWKIDGSERQNGVLNSWTDQDSKDSTYSMSSTLTLTKDEYERHNSYTCEATHKTSTSPIVKSFNRNEC
For B1, the “RV medial diameter compared to the negative controls” value in the test on MCT-induced PH [1] (day 28, all groups p<0.05, F8 IgG p=0.028) is recorded as “significantly increased”. The “RV basal diameter compared with the MCT-induced PH group without treatment” value in the test on MCT-induced PH [1] (day 28, p=0.002) is recorded as “significant attenuation”. In addition, in the test with MCT-induced PH [1] (day 28, p=0.003), the “RA area compared with the MCT-induced PH group with MAC treatment” value is reported as “significant reduction” and the “TAPSE compared to the MCT-induced PH group with MAC treatment” value was “significant improvement”. Further, the “TAPSE compared to the MCT-induced PH group without treatment” value in the test on MCT-induced PH [1] (day 28, p=0.004) is listed as “significant improvement”. Further, in the test with MCT-induced PH [1] (day 28, p=0.005), the “RV basal diameter compared with the MCT-induced PH group with KSF IgG treatment” value was “significant attenuation” and the “RV basal diameter compared with the MCT-induced PH group with MAC treatment” value is given as “significant attenuation”. In the test on MCT-induced PH [1] (day 28, p=0.009), the “RA area compared with the MCT-induced PH group with KSF IgG treatment” value is “significant reduction”. The “RV medial diameter compared with the MCT-induced PH group with KSF IgG treatment” value with MCT-induced PH [1] (day 28, p=0.010) is “significantly reduced”. The “RV medial diameter compared with the MCT-induced PH group without treatment” value in the test on MCT-induced PH [1] (day 28, p=0.017) is “significantly reduced”. Moreover, the “RA area compared with the MCT-induced PH group without treatment” value with MCT-induced PH [1] (day 28, p=0.021) was “significant reduction”. Also, the “TAPSE compared to the MCT-induced PH group with KSF IgG treatment” value with MCT-induced PH [1] (day 28, p=0.049) is “significant improvement”. In addition, the “echocardiographic signs of right ventricular load and dysfunction” value in the test with MCT-induced PH [1] (setting [3]) is given as “improvement”. In addition, in the test on MCT-induced PH [2] (MAC p=0.020, F8 IgG p=0.005, KSF IgG p=0.907), the “histopathological lung tissue damage (sum-score 0 to 12) compared to the MCT-induced PH group without treatment” value was “significantly reduced”. In the test on MCT-induced PH [2] (all groups p<0.05, F8 IgG p=0.002), the “histopathological lung tissue damage (sum-score 0 to 12) compared to negative controls” value is “significantly increased”. The “lung tissue damage at the histopathological level” value with MCT-induced PH [2] (setting [3]) was “attenuation”.
